Results from publication PMC10539383, “Recognition and cleavage mechanism of intron-containing pre-tRNA by human TSEN endonuclease complex”.

Target: T1, TSEN2;TSEN34;TSEN15;TSEN54 (Homo sapiens;Homo sapiens;Homo …, UniProt Q8NCE0;Q9BSV6;Q8WW01;Q7Z6J9 1-465;1-310;1-171;1-526, |||)
T1 sequence 1: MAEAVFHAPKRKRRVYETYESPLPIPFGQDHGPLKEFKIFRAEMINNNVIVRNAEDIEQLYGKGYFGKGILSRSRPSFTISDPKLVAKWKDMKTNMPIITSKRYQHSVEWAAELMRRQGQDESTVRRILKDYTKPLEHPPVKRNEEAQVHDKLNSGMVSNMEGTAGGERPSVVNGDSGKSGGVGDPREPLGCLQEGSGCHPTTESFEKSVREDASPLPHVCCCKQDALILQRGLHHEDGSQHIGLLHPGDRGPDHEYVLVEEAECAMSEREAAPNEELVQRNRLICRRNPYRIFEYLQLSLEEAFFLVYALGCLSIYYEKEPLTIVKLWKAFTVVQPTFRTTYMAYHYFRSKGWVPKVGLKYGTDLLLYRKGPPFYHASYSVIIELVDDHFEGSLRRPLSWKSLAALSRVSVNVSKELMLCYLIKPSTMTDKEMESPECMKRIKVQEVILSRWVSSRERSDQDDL
T1 sequence 2: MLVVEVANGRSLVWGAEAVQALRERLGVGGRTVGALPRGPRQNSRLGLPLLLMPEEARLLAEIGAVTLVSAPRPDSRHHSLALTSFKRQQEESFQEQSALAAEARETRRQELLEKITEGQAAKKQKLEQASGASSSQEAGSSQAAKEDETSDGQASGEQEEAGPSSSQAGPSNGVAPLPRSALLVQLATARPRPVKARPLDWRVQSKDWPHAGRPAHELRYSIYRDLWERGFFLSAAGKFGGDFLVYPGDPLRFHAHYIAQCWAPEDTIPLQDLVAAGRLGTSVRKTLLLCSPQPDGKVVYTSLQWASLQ
T1 sequence 3: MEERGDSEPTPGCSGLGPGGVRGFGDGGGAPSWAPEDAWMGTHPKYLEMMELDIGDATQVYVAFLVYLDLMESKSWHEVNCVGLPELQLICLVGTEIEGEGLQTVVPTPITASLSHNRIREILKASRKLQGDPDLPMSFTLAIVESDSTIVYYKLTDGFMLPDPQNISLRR
T1 sequence 4: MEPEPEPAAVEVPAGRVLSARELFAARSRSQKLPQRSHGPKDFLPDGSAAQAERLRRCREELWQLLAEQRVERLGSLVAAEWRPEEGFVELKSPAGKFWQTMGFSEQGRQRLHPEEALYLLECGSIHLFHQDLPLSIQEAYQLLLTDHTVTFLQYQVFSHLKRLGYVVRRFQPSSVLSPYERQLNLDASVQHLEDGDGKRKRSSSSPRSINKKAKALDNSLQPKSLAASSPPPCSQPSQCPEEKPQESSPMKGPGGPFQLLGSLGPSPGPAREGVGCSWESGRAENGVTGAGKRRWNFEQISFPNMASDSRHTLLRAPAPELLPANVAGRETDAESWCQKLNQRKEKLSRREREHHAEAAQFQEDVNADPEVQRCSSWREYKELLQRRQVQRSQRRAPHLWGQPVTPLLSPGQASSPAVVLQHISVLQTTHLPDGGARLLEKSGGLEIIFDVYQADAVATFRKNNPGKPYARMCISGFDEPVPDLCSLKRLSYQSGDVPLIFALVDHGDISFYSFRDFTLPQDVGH
Assay: cryo-EM structure (3.2 A); wild-type active complex; Protein (EM) buffer: 20 mM HEPES pH 8.0, 150 mM NaCl, 1 mM MgCl2, 5 mM DTT; complex formation conditions and temperature not in the material
Details: protein: recombinant;recombinant;recombinant;recombinant; tags: none stated;none stated;N-terminal 6xHis;N-terminal GST removed by TEV; copies: 1;1;1;1; pre-tRNA fold, single strand with anticodon-intron stem and 3' bulge

B1: pre-tRNAArgTCT (structured_RNA)
RNA: GGGGGCUCUGUGGCGCAAUGGAUAGCGCAUUGGACUUCUAGUGACGAAUAGAGCAAUUCAAAGGUUGUGGGUUCGAAUCCCACCAGAGUCG
  binding result: binds
